Measurements as given in patent publication US20230192857A1 (published 2023).
Read-outs that look alike come from different tables or passages of the source. Non-standard residues stand in square brackets, D forms with d. No end group written: not given here. pY = N[C@@H](Cc1ccc(OP(=O)(O)O)cc1)C(=O)O

Columns and labels:
[1] = target: T1, hCIS-SH2-BC complex (recombinant trimeric complex of human GST-CIS-SH2 construct with Elongins B and C) (UniProt Q9NSE2 66-258; Q15370 1-118; Q15369 17-112); test: ITC
[2] = target: T1, hCIS-SH2-BC complex (recombinant …); test: ITC; remark: listed apart in the source

| Binder | Kd [1] | Kd [2] |
| --- | --- | --- |
| LSGEDDA[pY]CTFPSRDD [phosphopeptide corresponding to Tyr392 within the IL-2Rβ (printed 'IL-2R13') cytoplasmic domain] | 1.8 µM | 1.8 µM |
| VYFTYDP[pY]SEEDPDEG [phosphopeptide corresponding to Tyr361 within the IL-2Rβ (printed 'IL-2R13') cytoplasmic domain] | 1.5 µM | 1.5 µM |
| EIEACQV[pY]FTYDPYSE [phosphopeptide corresponding to Tyr355 within the IL-2Rβ (printed 'IL-2R13') cytoplasmic domain] | 0.94 µM | 0.94 µM |
